# Target: HLA-B*53:01
# Experiment: IEDB peptide-MHC binding, purified MHC/competitive/radioactivity; ≥ and ≤ were set here for values at or beyond the usual limits of such assays
# Settings: source organism: Bordetella pertussis
row,Sequence,IC50 [µM]
1,LAAGAGLTL,58.7
2,VPVSEHCTV,69.9

# Target: HLA-B*44:03
# Experiment: as above
# Settings: source organism: Bordetella pertussis
row,Sequence,IC50 [µM]
1,MESNKDIVI,9.93
2,GELMAAQVA,0.572

# Target: HLA-B*35:01
# Experiment: as above
# Settings: source organism: Bordetella pertussis
row,Sequence,IC50 [µM]
1,APNALAWAL,6.26
2,PDAHVPFCF,69.9
3,LFTQQGGAY,69.9

# Target: HLA-A*02:01
# Experiment: as above
# Settings: source organism: Bordetella pertussis
row,Sequence,IC50 [µM]
1,WVMTDNSNV,29.2
2,RLRKMLYLI,14.9
3,ITSYVGFSV,4.39
4,IVVEAGELV,9.86

# Target: HLA-B*07:02
# Experiment: as above
# Settings: source organism: Bordetella pertussis
row,Sequence,IC50 [µM]
1,RTHGVGASL,1.58
2,LAAGAGLTL,7.38
3,GIVIPPKAL,69.6
4,RPQITDAVT,16.3
5,CFGKDLKRP,69.6
